# Results published in PMC11241417.
# Target: URH1p riboside hydrolase from Saccharomyces cerevisiae (S. cerevisiae) (UniProt Q04179)
# Test: AUC; sedimentation velocity, absorbance 280 nm, 45,000 rpm; samples kept at 4 °C for two weeks; 2.6, 5.2, 10.4 and 15.6 µM; monomer to disulphide-linked dimer
substance,measurement,value
URH1p riboside hydrolase from Saccharomyces cerevisiae (from UniProt Q04179 2-340) (enzyme),ratio between monomeric and dimeric URH1p in the sample,33%
same,stoichiometry N,2
